Consider one molecule from paper PMC3080401, “Oligomerization of the E. coli Core RNA Polymerase: Formation of (α2ββ'ω)2–DNA Complexes and Regulation of the Oligomerization by Auxiliary Subunits”.

Data set [1] deals with RNA polymerase core enzyme (alpha2 beta beta' omega);NusA (Escherichia coli;Escherichia coli, UniProt P0A7Z4;P0A8V2;P0A8T7;P0A800;P0AFF6 1-329;1-1342;1-1407;1-91;1-495, |). The experiment in a line: EMSA; 160 nM core, NusA titration; tandem core-DNA complex dissociated to single copy; EMSA buffer D (1x): 20 mM Tris-acetate, 10 mM Mg acetate, 50 mM K acetate, 1 mM DTT, pH 7.8; native PAGE in 0.5x TBE running buffer; 37 C for the tac and slyD template reactions, otherwise temperature not stated. Conditions: protein: native;recombinant; tags: ;; chain copies: 2;1;1;1;1; label: 5'-32P.

In data set [2] the target is RNA polymerase core enzyme (alpha2 beta beta' omega);RapA (Escherichia coli;Escherichia coli, UniProt P0A7Z4;P0A8V2;P0A8T7;P0A800;P60240 1-329;1-1342;1-1407;1-91;1-968, |). Kind of data set: EMSA; 160 nM core, RapA titration; shifts to single-copy core-RapA-DNA complex; EMSA buffer D (1x): 20 mM Tris-acetate, 10 mM Mg acetate, 50 mM K acetate, 1 mM DTT, pH 7.8; native PAGE in 0.5x TBE running buffer; 37 C for the tac and slyD template reactions, otherwise temperature not stated. Conditions: protein: native;recombinant; tags: ;; chain copies: 2;1;1;1;1; label: 5'-32P.

Consider CGCGCCAACAGCGACATCAAATTTGTCGCC (mixed) [short DNA probe (Fig 2E)], for which the binding result in data set [1] and in data set [2] was “binds” in each case.
